The results in this text go back to patent US6586559B2, “Polyamide oligomers” (Inex Pharmaceuticals Corporation, priority 1997, dated 2003).

This data set in a line: Encapsulation of cationic peptide IB510 in liposomes (extrusion, BioGel column, LSC/HPLC). Format: physicochemical. Particulars: ATTA8-DSPE versus PEG-PE. On the procedure: Lipid films (total of 100 mg of lipid) were prepared by dissolving appropriate quantities of individual lipids in 200 to 500 μL of chloroform, mixing the lipids, then removing the chloroform under high vacuum. Specifically, prepared lipid films were sphingomyelin/cholesterol/PEG-PE (50/45/5 molar ratios; prepared from 53.2 mg sphingomyelin, 26 mg cholesterol and 20 mg PEG-PE) and sphingomyelin/cholesterol/ATTA8-DSPE (50/45/5 molar ratios; prepared from 53.2 mg sphingomyelin, 26 mg cholesterol and 20 mg ATTA8-DSPE) and contained 1 μCi of 3H-cholesterylhexadecylether as a radiolabelled tracer. […] 5 μl were removed for phosphate assay to quantify the phospholipid and for liquid scintillation counting (LSC). […]
Aliquots of 200-400 μL of the large unilamellar vesicles containing IB510 were passed over a 20 cm×1 cm BioGel A-15 m (50-100 mesh) column pre-equilibrated in 150 mM NaCl and 20 mM Hepes (pH 7.5). […] The concentrations of liposomes and peptide were quantified by LSC and HPLC, respectively. Encapsulation efficiency was calculated from the post-column peptide/lipid ratio divided by the precolumn peptide/lipid ratio. […]

Turning to “N-(ω-azido-octa-(14′-amino-3′,6′,9′,12′-tetraoxatetradecanoyl))-1,2-distearoyl-sn-glycero-3-phosphoethanolamine [ATTA8-DSPE]”, the “encapsulation efficiency (comparison in words)” value is “superior to PEG-PE”.

Turning to “Octa-(14-amino-3,6,9,12-tetraoxatetradecanoic acid) [ATTA8]”, the “encapsulation efficiency (comparison in words)” value was “superior to PEG”.
